Reference: US20130058934A1 (Novartis, published 2013)
Substitutions are numbered along the chain they refer to. Names may count otherwise.

T1: LRP6 PD1/2 (human, UniProt O75581 19-629)
T1 construct: range 19-629; Recombinant soluble fragment; also called Propeller Domains 1-2 of LRP6; recombinant LRP6 PD1/2
T1 sequence (looked up): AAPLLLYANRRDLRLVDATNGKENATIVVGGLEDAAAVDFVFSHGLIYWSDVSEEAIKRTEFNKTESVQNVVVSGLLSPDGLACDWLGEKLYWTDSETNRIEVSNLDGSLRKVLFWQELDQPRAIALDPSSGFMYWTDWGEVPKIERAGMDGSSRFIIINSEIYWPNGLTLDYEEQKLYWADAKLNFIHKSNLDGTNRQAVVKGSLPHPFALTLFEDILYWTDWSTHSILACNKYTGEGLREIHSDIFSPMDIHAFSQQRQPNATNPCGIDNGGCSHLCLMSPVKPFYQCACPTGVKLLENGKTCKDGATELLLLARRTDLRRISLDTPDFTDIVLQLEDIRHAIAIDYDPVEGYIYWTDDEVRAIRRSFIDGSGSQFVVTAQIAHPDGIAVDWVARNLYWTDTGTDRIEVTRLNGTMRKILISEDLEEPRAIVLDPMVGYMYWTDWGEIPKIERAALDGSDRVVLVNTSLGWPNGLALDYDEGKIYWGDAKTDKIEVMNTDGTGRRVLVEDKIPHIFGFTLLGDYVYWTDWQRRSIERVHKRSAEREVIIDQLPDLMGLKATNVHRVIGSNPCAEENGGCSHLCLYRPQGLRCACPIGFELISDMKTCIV

T2: LRP6 PD3/4 (human, UniProt O75581 631-1246)
T2 construct: range 631-1246; Recombinant soluble fragment; also called Propeller Domains 3-4 of LRP6; recombinant LRP6 PD3/4
T2 sequence (looked up): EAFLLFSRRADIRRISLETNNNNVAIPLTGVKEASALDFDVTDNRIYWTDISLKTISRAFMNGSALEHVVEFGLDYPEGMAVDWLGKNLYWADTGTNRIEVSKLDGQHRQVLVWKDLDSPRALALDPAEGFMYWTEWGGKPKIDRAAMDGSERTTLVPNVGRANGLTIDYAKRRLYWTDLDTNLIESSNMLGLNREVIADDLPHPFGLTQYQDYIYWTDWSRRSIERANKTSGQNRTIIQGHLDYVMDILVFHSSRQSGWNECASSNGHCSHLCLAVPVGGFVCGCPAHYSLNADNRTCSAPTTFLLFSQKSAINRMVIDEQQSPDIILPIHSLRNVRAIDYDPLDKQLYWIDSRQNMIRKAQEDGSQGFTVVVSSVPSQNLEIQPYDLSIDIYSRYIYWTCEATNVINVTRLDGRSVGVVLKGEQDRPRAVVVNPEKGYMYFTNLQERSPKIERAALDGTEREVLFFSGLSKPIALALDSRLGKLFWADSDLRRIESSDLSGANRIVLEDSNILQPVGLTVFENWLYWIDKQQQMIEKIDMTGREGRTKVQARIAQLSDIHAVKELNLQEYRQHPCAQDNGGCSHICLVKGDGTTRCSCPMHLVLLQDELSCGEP

T3: LRP6-Fc (R&D Systems, catalog No: 1505-LR) (human, UniProt O75581 20-1370)
T3 construct: Purchased reagent; also called LRP6 protein; 360 KD homodimer antigen LRP6-Fc; not shown: Fc part of the purchased fusion
T3 sequence (looked up): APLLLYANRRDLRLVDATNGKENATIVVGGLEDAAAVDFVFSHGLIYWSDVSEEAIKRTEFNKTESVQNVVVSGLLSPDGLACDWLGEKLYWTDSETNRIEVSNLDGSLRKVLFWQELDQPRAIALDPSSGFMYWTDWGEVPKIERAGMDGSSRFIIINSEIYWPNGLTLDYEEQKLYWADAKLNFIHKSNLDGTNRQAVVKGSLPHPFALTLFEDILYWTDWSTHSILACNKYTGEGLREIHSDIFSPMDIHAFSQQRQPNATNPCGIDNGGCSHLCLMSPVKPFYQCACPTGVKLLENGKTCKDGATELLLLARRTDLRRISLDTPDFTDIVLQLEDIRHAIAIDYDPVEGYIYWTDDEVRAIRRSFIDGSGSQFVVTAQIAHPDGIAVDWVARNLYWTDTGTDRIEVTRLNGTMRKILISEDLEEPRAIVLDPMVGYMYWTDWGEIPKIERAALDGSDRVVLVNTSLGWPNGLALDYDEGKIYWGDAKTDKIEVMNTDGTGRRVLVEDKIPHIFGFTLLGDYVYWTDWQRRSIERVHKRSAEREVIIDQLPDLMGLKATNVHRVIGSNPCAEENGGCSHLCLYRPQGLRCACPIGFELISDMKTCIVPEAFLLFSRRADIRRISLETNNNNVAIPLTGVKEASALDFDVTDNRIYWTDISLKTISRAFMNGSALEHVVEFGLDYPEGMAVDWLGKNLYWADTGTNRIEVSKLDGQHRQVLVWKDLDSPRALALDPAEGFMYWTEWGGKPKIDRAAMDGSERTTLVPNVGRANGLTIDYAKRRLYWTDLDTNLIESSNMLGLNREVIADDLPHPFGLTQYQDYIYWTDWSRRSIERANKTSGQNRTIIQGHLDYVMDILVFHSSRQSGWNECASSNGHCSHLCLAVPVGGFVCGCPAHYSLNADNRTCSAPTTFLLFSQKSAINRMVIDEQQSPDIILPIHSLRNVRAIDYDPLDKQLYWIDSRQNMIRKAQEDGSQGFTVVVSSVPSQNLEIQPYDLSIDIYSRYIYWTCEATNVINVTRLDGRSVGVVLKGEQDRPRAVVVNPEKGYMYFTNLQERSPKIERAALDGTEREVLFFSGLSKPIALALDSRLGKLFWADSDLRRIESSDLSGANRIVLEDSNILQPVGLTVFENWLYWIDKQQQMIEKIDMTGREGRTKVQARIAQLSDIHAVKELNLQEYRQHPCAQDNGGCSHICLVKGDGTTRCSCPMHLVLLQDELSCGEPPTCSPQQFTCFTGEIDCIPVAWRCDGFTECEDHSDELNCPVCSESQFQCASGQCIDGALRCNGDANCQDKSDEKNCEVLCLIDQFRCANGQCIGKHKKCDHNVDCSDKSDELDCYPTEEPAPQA

B1: MOR08168 hIgG1LALA (antibody)
heavy: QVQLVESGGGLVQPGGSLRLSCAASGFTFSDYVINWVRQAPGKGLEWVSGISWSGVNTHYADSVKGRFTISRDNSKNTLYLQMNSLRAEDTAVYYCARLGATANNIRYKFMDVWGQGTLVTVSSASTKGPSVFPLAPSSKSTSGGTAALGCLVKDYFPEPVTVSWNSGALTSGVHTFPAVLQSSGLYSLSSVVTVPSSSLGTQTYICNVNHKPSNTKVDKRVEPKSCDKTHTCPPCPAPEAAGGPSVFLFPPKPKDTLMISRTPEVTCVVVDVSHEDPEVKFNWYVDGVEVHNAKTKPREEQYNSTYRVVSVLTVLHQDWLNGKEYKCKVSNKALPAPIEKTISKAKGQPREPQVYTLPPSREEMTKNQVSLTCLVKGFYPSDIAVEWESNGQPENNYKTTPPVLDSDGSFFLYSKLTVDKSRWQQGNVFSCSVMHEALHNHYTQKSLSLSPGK
light: DIELTQPPSVSVAPGQTARISCSGDSLRNKVYWYQQKPGQAPVLVIYKNNRPSGIPERFSGSNSGNTATLTISGTQAEDEADYYCQSYDGQKSLVFGGGTKLTVLGQPKAAPSVTLFPPSSEELQANKATLVCLISDFYPGAVTVAWKADSSPVKAGVETTTPSKQSNNKYAASSYLSLTPEQWKSHRSYSCQVTHEGSTVEKTVAPTECS
notes: Human IgG1 LALA / lambda; also called Propeller 1 IgG (MOR08168); MOR08168 (propeller 1 antibody)
B2: anti-LRP6 MOR08168hIgG1LALA 6475 scfv (bispecific antibody)
heavy: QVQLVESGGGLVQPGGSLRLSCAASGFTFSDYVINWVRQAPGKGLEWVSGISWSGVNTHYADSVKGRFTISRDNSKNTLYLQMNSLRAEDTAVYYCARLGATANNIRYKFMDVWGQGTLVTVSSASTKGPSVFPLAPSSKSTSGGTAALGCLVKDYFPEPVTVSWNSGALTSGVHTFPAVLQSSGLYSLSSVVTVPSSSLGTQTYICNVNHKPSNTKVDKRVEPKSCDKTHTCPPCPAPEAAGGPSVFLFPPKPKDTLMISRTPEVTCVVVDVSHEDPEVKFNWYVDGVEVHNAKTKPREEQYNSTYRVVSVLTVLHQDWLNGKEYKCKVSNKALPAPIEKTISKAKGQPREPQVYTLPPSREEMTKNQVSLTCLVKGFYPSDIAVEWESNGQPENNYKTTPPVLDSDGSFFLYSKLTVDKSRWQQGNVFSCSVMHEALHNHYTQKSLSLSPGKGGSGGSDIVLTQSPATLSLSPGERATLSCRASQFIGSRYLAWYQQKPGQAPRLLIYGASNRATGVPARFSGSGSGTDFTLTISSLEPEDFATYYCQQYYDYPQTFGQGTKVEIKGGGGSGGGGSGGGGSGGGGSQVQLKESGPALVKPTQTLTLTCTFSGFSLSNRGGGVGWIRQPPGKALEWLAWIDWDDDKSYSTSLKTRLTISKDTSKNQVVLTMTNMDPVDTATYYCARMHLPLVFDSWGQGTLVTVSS
light: B1 light
notes: Biparatopic: MOR08168 IgG1 LALA with MOR06475 scFv (VL-(Gly4Ser)4-VH) fused by a (GlyGlySer)2 linker to the C-terminus of CH3; also called Biparatopic anti-LRP6 IgG scFv
B3: scFv06475 VH:G34V (scFv, name in Kabat numbering, V domains shown)
VH: QVQLKESGPALVKPTQTLTLTCTFSGFSLSNRGVGVGWIRQPPGKALEWLAWIDWDDDKSYSTSLKTRLTISKDTSKNQVVLTMTNMDPVDTATYYCARMHLPLVFDSWGQGTLVTVSS
VL: DIVLTQSPATLSLSPGERATLSCRASQFIGSRYLAWYQQKPGQAPRLLIYGASNRATGVPARFSGSGSGTDFTLTISSLEPEDFATYYCQQYYDYPQTFGQGTKVEIK
notes: Point mutant of scFv06475 (His tag)
B4: scFv06475 VH:I37F (scFv, name in Kabat numbering, V domains shown)
VH: B3 VH with V34G, I39F
VL: B3 VL
notes: as for B3
B5: scFv08168 wild type (scFv, V domains shown)
VH: QVQLVESGGGLVQPGGSLRLSCAASGFTFSDYVINWVRQAPGKGLEWVSGISWSGVNTHYADSVKGRFTISRDNSKNTLYLQMNSLRAEDTAVYYCARLGATANNIRYKFMDVWGQGTLVTVSS
VL: DIELTQPPSVSVAPGQTARISCSGDSLRNKVYWYQQKPGQAPVLVIYKNNRPSGIPERFSGSNSGNTATLTISGTQAEDEADYYCQSYDGQKSLVFGGGTKLTVL
notes: One polypeptide (scFv with His tag); also called MOR08168 scFv wild type
B6: scFv08168 D1 (VH:I34M + VH:S49A) (scFv, V domains shown)
VH: B5 VH with I34M, S49A
VL: B5 VL
notes: Double mutant of scFv08168 (His tag); also called MOR08168D1 mutant; double mutant D1

Columns and labels:
cynoFcRn = molecular target: T4, cynoFcRn (cynomolgus monkey, UniProt Q8SPV9); experiment: Biacore, cynoFcRn at pH 6.0
T4 construct: also called cynomolgus FcRn

human FcRn [1] = molecular target: T5, human FcRn (human, UniProt P55899 24-297; P61769 21-119, limits assumed); experiment: Biacore, pH 6.0; human FcRn at pH 6.0, Biacore; parental IgG, not IgG-scFv
LRP6 PD1/2 = molecular target: T1, LRP6 PD1/2; experiment: Biacore T-100 SPR, antibody captured by anti-human IgG Fc on a CM4 chip, PD1/2 injected; N = 4
Experimental: (§1) The carboxymethyl dextran surface was activated with a 7 min injection of a 1:1 ratio of 0.4 M EDC (1-Ethyl-3-[3-dimethylaminopropyl]carbodiimide hydrochloride) and 0.1 M NHS(N-hydroxysuccinimide). […] PD1/2 and PD3/4 were prepared as two fold concentration series starting at 50 nM, and injected at 30 μl/min for 1 min. […] The surfaces were then regenerated two times with 10 mM glycine (pH 2.2). […] PD3/4 at a saturating concentration of 100 nM was then flowed over the surface at a flow rate of 30 μl/min for 30 min. A saturating concentration of 100 nM PD1/2 was injected immediately after the PD3/4. The dissociation constant (KD), association (kₒₙ), and dissociation (koff) rates were calculated from the baseline subtracted corrected binding curves using the BIAevaluation software (GE Healthcare).

LRP6 PD3/4 = molecular target: T2, LRP6 PD3/4; experiment: Biacore T-100 SPR, antibody captured by anti-human IgG Fc on a CM4 chip, PD3/4 injected; N = 3
Experimental: as §1

human FcRn [2] = molecular target: T5, human FcRn; experiment: Biacore, pH 6.0; human FcRn at pH 6.0, Biacore; IgG-scFv format (only low level binding at pH 7.4)
[3] = molecular target: T3, LRP6-Fc (R&D Systems, catalog No: …); experiment: ELISA on coated LRP6-Fc, pentaHis-HRP detection
Experimental: (§2) Binding EC₅₀ of scFvs against LRP6 protein was measured by ELISA. Maxisorp plate was coated with LRP6-Fc (R&D Systems, catalog No: 1505-LR) at 3 μg/ml at 4° C. overnight. The plate was blocked with 50 μl of 2% BSA for one hour, and washed five times with the wash solution. The samples were diluted with 1% BSA accordingly. The plate was incubated at RT for 1 h, and washed for 3 times. Detection was done by adding 50 μl pentaHis-HRP (Qiagen Mat. No. 1014992) at 1:2000 dilution in 1% BSA, incubated at RT for 1 h, and washed 3 times. 50 μl of substrate reagent A plus B (R&D systems) was added, then incubated for 5-20 min depending on the color. The reaction was stopped by adding 25 μl of the stop solution, followed by plate reading at 450 nm.
For scFv06475, there were two mutations affecting the activity as detected by ELISA and Proteon kinetics analysis.

[4] = molecular target: T3, LRP6-Fc (R&D Systems, catalog No: …); experiment: ELISA on coated LRP6-Fc, detection with pentaHis-HRP
Experimental: as §2
Affinity analysis ELISA EC₅₀ was carried out for both scFv08168 and scFv06475 wild type and variants.

human LRP6 = human LRP6 (human, UniProt O75581 20-1613); experiment: cell-based or functional assay
[5] = molecular target: T3, LRP6-Fc (R&D Systems, catalog No: …); experiment: Proteon XPR36, scFv captured by anti-His IgG, LRP6-Fc as analyte, bivalent analyte model
Experimental: Kinetics experiments were performed using BioRad's Proteon XPR36 biosensor. All experiments were performed at room temperature using PBST (phosphate buffered saline with 0.05% Tween-20) as the running buffer. All of the six vertical channels on a GLM chip were activated for 5 min at a flow rate of 30 μl/min using freshly prepared mixture of EDC (400 mM) and sNHS (100 mM). Anti-His mouse IgG1 (R&D systems, catalog No: MAB050) was diluted to 20 μg/ml in 10 mM sodium acetate, PH 5.0 and coupled to the chip for 5 min along separate vertical channels at a flow rate of 30 μl/min. 1 M ethanolamine was then injected for 5 min at 30 μl/min to deactivate the un-reacted sNHS groups. 2 μg/ml MOR08168 scFv wild type or 2 μg/ml MOR08168D1 mutant was then immobilized on different vertical channels for 15 sec at 100 μl/min followed by two 1 min injection of the running buffer at 30 μl/min in the horizontal direction. The sixth vertical channel was used as the channel reference and no ligand was immobilized on this channel. […] Association was monitored for 5 min and dissociation was monitored for 20 min. Buffer was injected in the sixth channel to serve as a row reference for real time baseline drifting correction. […] Kinetics analysis on the Proteon was performed in Proteon Manager v.2.1.1. […]

Kd (cynoFcRn) [nM] | EC50 [3] [nM] | EC50 [4] [nM] | Kd [5] [nM] | further results | Binder
280 | – | – | – | Kd (human FcRn [1]): 23 nM; Kd (LRP6 PD1/2): 1.08 nM; koff (LRP6 PD1/2): 9.05e-05 s⁻¹; kon (LRP6 PD1/2): 87200 M⁻¹ s⁻¹ | B1
120 | – | – | – | Kd (LRP6 PD3/4): 1.93 nM; koff (LRP6 PD3/4): 0.000314 s⁻¹; kon (LRP6 PD3/4): 211000 M⁻¹ s⁻¹; Kd (human FcRn [2]): 21 nM | B2
– | 27 | 27.4 | – | – | B3
– | 4.3 | – | – | – | B4
– | – | 2.04 | 3.82 | IC50 by STF assay for Wnt1 inhibition (human LRP6): 7.41 nM | B5
– | – | 1.61 | 2.55 | – | B6
